Experiment [1] addresses T1, biotinylated recombinant human trimeric ARG1 enzyme (Avi-huARG1-His10) (human, UniProt P05089 1-322, biotinylated in HTRF and streptavidin BLI assays).
T1 construct: also called Human ARG1; recombinant ARG1
T1 sequence: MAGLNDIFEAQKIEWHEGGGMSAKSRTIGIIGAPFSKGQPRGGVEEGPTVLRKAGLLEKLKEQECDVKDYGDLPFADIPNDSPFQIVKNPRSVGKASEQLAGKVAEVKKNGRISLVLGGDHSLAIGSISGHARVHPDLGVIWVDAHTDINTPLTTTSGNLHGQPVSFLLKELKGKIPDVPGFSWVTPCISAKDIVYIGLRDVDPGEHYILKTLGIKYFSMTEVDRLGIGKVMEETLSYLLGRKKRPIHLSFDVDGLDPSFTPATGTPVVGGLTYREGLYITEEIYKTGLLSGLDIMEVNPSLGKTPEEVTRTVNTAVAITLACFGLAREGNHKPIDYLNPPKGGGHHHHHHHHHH
Put plainly: BLI (OctetRED), His-tagged ligand on anti-His surface. The procedure:
The binding of affinity-matured antibodies to human ARG1 was also tested on the OctetRED system using a screening assay which stably captures […] as the ligand on an anti-His surface. The Fabs were typically tested in an analyte range of 1.8 to 120 nM, with an association time of 5 minutes and a dissociation time of 10 minutes. Sensors were regenerated using 10 mM glycine pH 1.5 after each cycle.

In experiment [2] the target is T2, biotinylated recombinant human trimeric ARG2 enzyme (Avi-huARG2-His10) (human, UniProt P78540 23-354, biotinylated).
T2 construct: also called avi-Arg2-His10; bio-ARG2
T2 chain: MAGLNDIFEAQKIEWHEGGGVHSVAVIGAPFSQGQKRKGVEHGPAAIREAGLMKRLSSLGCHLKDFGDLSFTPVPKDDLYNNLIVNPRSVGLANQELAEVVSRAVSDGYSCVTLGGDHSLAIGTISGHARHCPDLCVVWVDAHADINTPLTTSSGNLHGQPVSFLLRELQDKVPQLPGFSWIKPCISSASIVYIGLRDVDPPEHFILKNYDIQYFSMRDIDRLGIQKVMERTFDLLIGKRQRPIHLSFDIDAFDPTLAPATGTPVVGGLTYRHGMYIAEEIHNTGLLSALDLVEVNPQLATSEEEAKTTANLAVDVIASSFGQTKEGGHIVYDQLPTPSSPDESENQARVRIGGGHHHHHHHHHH
Put plainly: BLI (OctetRED), biotinylated ARG2 on streptavidin, Fab as analyte. The procedure: (§1) An Octet Kinetics Buffer (PBS containing 0.01% BSA and 0.002% Tween20) is typically used as the diluent buffer for the analyte samples and as the flow buffer during the dissociation phase. The experimental data is recorded over time as shift in interference pattern (nm) over time, which is directly proportional to the optical thickness at the biosensor tip, which in turn is an approximate measure of the mass of analyte bound. The proprietary Octet Data Analysis software package can then be used to process data and fit binding models to the data sets. Returned association (kₐ, M⁻¹ s⁻¹) and dissociation (kd, s⁻¹) rate constants allow calculation of dissociation (KD, M) affinity constants.
(§2) Typically, an analyte titration range of 1.8 to 120 nM was used.

Experiment [3] has as its target T3, biotinylated recombinant cynomolgus monkey trimeric ARG2 enzyme (Avi-cynoARG2-His10) (cynomolgus monkey, UniProt P78540 23-354 (human entry), biotinylated).
T3 construct: also called cynomolgus ARG2
T3 chain: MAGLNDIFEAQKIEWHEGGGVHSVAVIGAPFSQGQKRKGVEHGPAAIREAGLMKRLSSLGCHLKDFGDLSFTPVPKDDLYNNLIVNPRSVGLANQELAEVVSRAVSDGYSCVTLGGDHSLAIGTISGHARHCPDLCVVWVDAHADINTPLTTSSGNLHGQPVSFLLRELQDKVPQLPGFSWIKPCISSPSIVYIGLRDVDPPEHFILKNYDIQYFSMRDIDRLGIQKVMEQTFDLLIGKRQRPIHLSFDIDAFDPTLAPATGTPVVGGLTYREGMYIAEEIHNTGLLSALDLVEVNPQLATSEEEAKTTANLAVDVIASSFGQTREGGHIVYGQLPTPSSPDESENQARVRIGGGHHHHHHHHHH
Put plainly: BLI (OctetRED), biotinylated cyno ARG2 on streptavidin, Fab as analyte. The procedure: as §1, §2

Experiment [4] concerns the target T2, biotinylated recombinant human trimeric …. Put plainly: BLI (OctetRED) extended assay, bio-ARG2 on streptavidin, Fab as analyte, 1:1 fit. The procedure:
The affinities of the second-generation antibodies to human ARG2 were measured on the OctetRED system. A screening assay which stably captures His-tagged ARG2 as the ligand on an anti-His surface was utilised to screen the second-generation candidates as Fabs at an analyte range of 1.8 to 120 nM, with an association time of 5 minutes and a dissociation time of 10 minutes. Sensors were regenerated using 10 mM glycine pH 1.5 after each cycle. Based on this assay, six candidates with estimated affinities in the sub-nanomolar range were identified, and they were further profiled using an extended assay which is more suitable for antibodies of high affinities. In the extended assay, the association and dissociation times were extended to 10 and 40 minutes respectively, using a lower Fab analyte titration range of 0.47 to 30 nM, on a streptavidin surface which captures bio-ARG2 as the ligand. The sensorgrams were reference subtracted and fitted to the 1:1 binding model to estimate their binding affinities using the Octet analysis software.

The target of experiment [5] is T1, biotinylated recombinant human trimeric …. Description: BLI (OctetRED), His-tagged ligand on anti-His surface. The source holds these as a separate data set.

Read-outs that look alike come from different tables or passages of the source.

Usually Kd stands for the free concentration of one partner at which half of the binding sites on the other are occupied at equilibrium, for simple one-to-one binding. Usually koff stands for the rate constant with which the complex falls apart. Broadly, the kon is the second-order rate constant of association.

B1: C0021061 Fab (Fab, V domains shown)
VH: EVQLLESGGGLVQPGGSLRLSCAASGFTFSSYAMSWVRQAPGKGLEWVSAKPTDAGSTYYADSVKGRFTISRDNSKNTLYLQMNSLRAEDTAVYYCARLRADLGLYMDLWGRGTLVTVSS
VL: QSVLTQPPSVSAAPGQKVTISCSGSSSNIGNHYVSWYQQLPGTAPKLLIYNTVYPKSGIPDRFSGSKSGTSATLGITGLQTGDEADYYCGTWDSSLSALVFGGGTKLTVL
notes: Human Fab
Take B1: the binding result in experiment [1] is given as “no binding (tested: 1.8 to 120 nM Fab)”. Further, in experiment [2], the Kd is 1.3 nM, the off-rate (koff) was found to be 0.000351 s⁻¹ and the kon is 271000 M⁻¹ s⁻¹. For the same molecule, in experiment [3], the equilibrium dissociation constant (Kd) amounted to 0.953 nM, the koff came out at 0.000296 s⁻¹ and the kon stood at 310000 M⁻¹ s⁻¹.

B2: C0021139 Fab (Fab, V domains shown)
VH: EVQLLESGGGLVQPGGSLRLSCAASGFTFQYDYQVWVRQAPGKGLEWVSAISGSGGSTYYADSVKGRFTISRDNSKNTLYLQMNSLRAEDTAVYYCARLRADLGLYMDLWGRGTLVTVSS
VL: QSVLTQPPSVSAAPGQKVTISCSGSSSNIGNHYVSWYQQLPGTAPKLLIYDNSERTSGIPDRFSGSKSGTSATLGITGLQTGDEADYYCGTWDELTSNLVFGGGTKLTVL
notes: Human Fab; also called LO C0021139 Fab
As to B2, the binding result in experiment [1] was “no binding (tested: 1.8 to 120 nM Fab)”. Also, in experiment [2], the Kd came out at 4.41 nM, the koff worked out at 0.000871 s⁻¹ and the kon worked out at 198000 M⁻¹ s⁻¹. Also, in experiment [3], the Kd stood at 2.63 nM, the off-rate (koff) was determined as 0.000724 s⁻¹ and the kon was found to be 275000 M⁻¹ s⁻¹.

B3: C0021128 Fab (Fab, V domains shown)
VH: EVQLLESGGGLVQPGGSLRLSCAASGFTFQYEVAAWVRQAPGKGLEWVSAISGPIPKGYYADSVKGRFTISRDNSKNTLYLQMNSLRAEDTAVYYCARLRADLGLYMDLWGRGTLVTVSS
VL: QSVLTQPPSVSAAPGQKVTISCSGSSSNIGNHYVSWYQQLPGTAPKLLIYDNAIESSGIPDRFSGSKSGTSATLGITGLQTGDGADYYCGTWDSNLSALVFGGGTKLTVL
notes: Human Fab
Turning to B3, the binding result in experiment [1] was “no binding (tested: 1.8 to 120 nM Fab)”. Further, in experiment [2], the Kd was found to be 2.53 nM, the koff is 0.000674 s⁻¹ and the kon was 266000 M⁻¹ s⁻¹. Also, in experiment [3], the Kd is 1.77 nM, the koff turned out to be 0.000771 s⁻¹ and the on-rate (kon) was determined as 437000 M⁻¹ s⁻¹.

B4: C0021022 Fab (Fab, V domains shown)
VH: EVQLLESGGGLVQPGGSLRLSCAASGFTFSSYAMSWVRQAPGKGPEWVSAISGFSPYYADSVKGRFTISRDNSKNTLYLQMNSLRAEDTAVYYCARLRADLGLYMDLWGRGTLVTVSS
VL: QSVLTQPPSVSAAPGQKVTISCSGSSSNIGNHYVSWYQQLPGTAPKLLIYDNSERPSGIPDRFSGSKSGTSATLGITGLQTGDEADYYCGTWDSSLSALVFGGGTKLTVL
notes: Human Fab
Take B4: the binding result in experiment [1] is on record as “no binding (tested: 1.8 to 120 nM Fab)”. Besides, in experiment [2], the Kd was determined as 2.73 nM, the koff worked out at 0.00112 s⁻¹ and the kon stood at 412000 M⁻¹ s⁻¹. In experiment [3], the Kd was found to be 1.66 nM, the off-rate constant (koff) was found to be 0.00117 s⁻¹ and the on-rate constant (kon) turned out to be 706000 M⁻¹ s⁻¹.

B5: C0021065 Fab (Fab, V domains shown)
VH: EVQLLESGGGLVQPGGSLRLSCAASGFTFSSYAMSWVRQAPGKGPEWVSAISGFSPYYADSVKGRFTISRDNSRNTLYLQMNSLRAEDTAVYYCARLRADLGLYMDLWGRGTLVTVSS
VL: QSVLTQPPSVSAAPGQKVTISCSGSSSNIGNHYVSWYQQLPGTAPKLLIYDTDHMASGIPDRFSGSKSGTSATLGITGLQTGDEADYYCGTWDSSLSALVFGGGTKLTVL
notes: Human Fab
Turning to B5, the binding result in experiment [1] is reported as “no binding (tested: 1.8 to 120 nM Fab)”. Besides, in experiment [2], the Kd worked out at 1.62 nM, the koff came out at 0.000665 s⁻¹ and the kon was 409000 M⁻¹ s⁻¹. Moreover, in experiment [3], the Kd worked out at 1.27 nM, the koff came out at 0.000782 s⁻¹ and the kon amounted to 617000 M⁻¹ s⁻¹.

B6: C0021092 Fab (Fab, V domains shown)
VH: EVQLLESGGGLVQPGGSLRLSCAASGFTFSRYAMSWVRQAPGKGLEWVSAHTHSPGSTYYADSVKGRFTISRDNSKNTLYLQMNSLRAEDTAVYYCARLRADLGLYMDLWGRGTLVTVSS
VL: QSVLTQPPSVSAAPGQKVTISCSGSSSNIGNHYVSWYQQLPGTAPKLLIYNSVARPSGIPDRFSGSKSGTSATLGITGLQTGDEADYYCGTWDSSLSALVFGGGTKLTVL
notes: Human Fab
With B6, the binding result in experiment [1] was “no binding (tested: 1.8 to 120 nM Fab)”. Besides, in experiment [2], the Kd was determined as 2.69 nM, the koff stood at 0.000755 s⁻¹ and the kon amounted to 280000 M⁻¹ s⁻¹. In addition, in experiment [3], the Kd stood at 2.05 nM, the koff was 0.000726 s⁻¹ and the kon stood at 354000 M⁻¹ s⁻¹.

B7: C0021133 Fab (Fab, V domains shown)
VH: EVQLLESGGGLVQPGGSLRLSCAASGFTFRYDHHVWVRQAPGKGLEWVSAISGSGGSTYYADSVKGRFTISRDNSKNTLYLQMNSLRAEDTAVYYCARLRADLGLYMDLWGRGTLVTVSS
VL: QSVLTQPPSVSAAPGQKVTVSCSGSSSNIGNHYVSWYQQLPGTAPKLLIYDTTVLSSGIPDRFSGSKSGTSATLGITGLQTGDEADYYCGTWDELTSNLVFGGGTKLTVL
notes: Human Fab
As to B7, the binding result in experiment [1] is recorded as “no binding (tested: 1.8 to 120 nM Fab)”. Further, in experiment [2], the equilibrium dissociation constant (Kd) is 2.05 nM, the koff is 0.000449 s⁻¹ and the kon came to 219000 M⁻¹ s⁻¹. In addition, in experiment [3], the Kd worked out at 1.67 nM, the koff was determined as 0.000549 s⁻¹ and the kon came to 328000 M⁻¹ s⁻¹.

B8: C0021144 Fab (Fab, V domains shown)
VH: EVQLLESGGGLVQPGGSLRLSCAASGFTFRYDYHVWVRQAPGKGLEWVSAISGSGGSTYYADSVKGRFTISRDNSKNTLYLQMNSLRAEDTAVYYCARLRADLGLYMDLWGRGTLVTVSS
VL: QSVLTQPPSVSAAPGQKVTVSCSGSSSNIGNHHVSWYQQLPGTAPKLLIYDTTVLSSGVPDRFSGSKSGTSATLGITGLQTGDEADYYCGTWDELTSNLVFGGGTKLTVL
notes: Human Fab
Consider B8, for which, in experiment [4], the Kd worked out at 0.338 nM, the koff came to 6.59e-05 s⁻¹ and the association rate constant (kon) was 195000 M⁻¹ s⁻¹. Also, in experiment [5], the binding result is given as “no binding (tested: up to 120 nM Fab)”.

For the origin of these results see patent US20220403048A1 (CANCER RESEARCH TECHNOLOGY, published 2022).
